Reference: patent US20200239537

Biological target: T1, apelin-17 (2)
T1 chain: KFRRQRPRLSHKGPMPF

B1: recombinant human neprilysin (rhNEP, Sino Biological) (protein)
chain: YDDGICKSSDCIKSAARLIQNMDATTEPCTDFFKYACGGWLKRNVIPETSSRYGNFDILRDELEVVLKDVLQEPKTEDIVAVQKAKALYRSCINESAIDSRGGEPLLKLLPDIYGWPVATENWEQKYGASWTAEKAIAQLNSKYGKKVLINLFVGTDDKNSVNHVIHIDQPRLGLPSRDYYECTGIYKEACTAYVDFMISVARLIRQEERLPIDENQLALEMNKVMELEKEIANATAKPEDRNDPMLLYNKMTLAQIQNNFSLEINGKPFSWLNFTNEIMSTVNISITNEEDVVVYAPEYLTKLKPILTKYSARDLQNLMSWRFIMDLVSSLSRTYKESRNAFRKALYGTTSETATWRRCANYVNGNMENAVGRLYVEAAFAGESKHVVEDLIAQIREVFIQTLDDLTWMDAETKKRAEEKALAIKERIGYPDDIVSNDNKLNNEYLELNYKEDEYFENIIQNLKFSQSKQLKKLREKVDKDEWISGAAVVNAFYSSGRNQIVFPAGILQPPFFSAQQSNSLNYGGIGMVIGHEITHGFDDNGRNFNKDGDLVDWWTQQSASNFKEQSQCMVYQYGNFSWDLAGGQHLNGINTLGENIADNGGLGQAYRAYQNYIKKNGEEKLLPGLDLNHKQLFFLNFAQVWCGTYRPEYAVNSIKTDVHSPGNFRIIGTLQNSAEFSEAFHCRKNSYMNPEKKCRVW
B1 was tested, and the Km was 190 µM, the kcat (1/S) was 3.4 1/S and the kcat/Km (1/MS) was 18000 1/MS.
